One substance from patent US11858993B2, “Multi-specific antibodies with affinity for human A33 antigen and DOTA metal complex and uses thereof” (Memorial Sloan Kettering Cancer Center, priority 2015, dated 2024) can be followed below.

“Also recorded” adds a separate entry of the source.

In the data set the test system is kidney, bone marrow, liver, and spleen. Briefly: Toxicity: weight, appearance and anatomic pathology after PRIT. As to conditions: PRIT-treated SW1222 mice, dual-cycle; out to 140 days where stated. The format is in vivo. On the procedure:
For dual-cycle PRIT given at 10 and 17 days post tumor inoculation, there is marked response at all dose levels with complete responses observed in a dose dependent manner. […] Toxicity was determined by monitoring weight and overall appearance at least three times per week, as well as histopathologic assessment of liver, kidney, spleen and bone marrow by MSKCC Lab of Comparative Pathology.
For 3/3 mice, the kidney, bone marrow, and liver were normal.

As for “huA33-C825: bispecific antibody: humanized A33 IgG1 with murine C825 anti-DOTA-Bn scFv linked to the light chain C-terminus”, the “toxicity (clinical, histologic)” value was “no clinical or histologic evidence of radiation induced toxicities; also recorded: no toxicity was observed; also recorded: no detectable toxicity”.
